Laboratory results taken from patent US20190185532A1 (UNIVERSITY OF BIRMINGHAM, published 2019).

What was measured:
[1] = target: T1, MMRN2^FL (full-length human MMRN2 with a polyhistidine (His) tag) (human, UniProt Q9H8L6 23-949); assay: far western blot, non-reduced; HEK293T lysates of GFP-tagged proteins probed with MMRN2^FL-His lysate, anti-His detection
T1 construct: mature; Used as lysate of transfected HEK293T cells; Forms large multimers under non-reduced conditions; also called MMRN2 full-length; MMRN2 FL with His tag; not shown: C-terminal BirA and His tags of vector pHL-Avitag3
T1 sequence (looked up): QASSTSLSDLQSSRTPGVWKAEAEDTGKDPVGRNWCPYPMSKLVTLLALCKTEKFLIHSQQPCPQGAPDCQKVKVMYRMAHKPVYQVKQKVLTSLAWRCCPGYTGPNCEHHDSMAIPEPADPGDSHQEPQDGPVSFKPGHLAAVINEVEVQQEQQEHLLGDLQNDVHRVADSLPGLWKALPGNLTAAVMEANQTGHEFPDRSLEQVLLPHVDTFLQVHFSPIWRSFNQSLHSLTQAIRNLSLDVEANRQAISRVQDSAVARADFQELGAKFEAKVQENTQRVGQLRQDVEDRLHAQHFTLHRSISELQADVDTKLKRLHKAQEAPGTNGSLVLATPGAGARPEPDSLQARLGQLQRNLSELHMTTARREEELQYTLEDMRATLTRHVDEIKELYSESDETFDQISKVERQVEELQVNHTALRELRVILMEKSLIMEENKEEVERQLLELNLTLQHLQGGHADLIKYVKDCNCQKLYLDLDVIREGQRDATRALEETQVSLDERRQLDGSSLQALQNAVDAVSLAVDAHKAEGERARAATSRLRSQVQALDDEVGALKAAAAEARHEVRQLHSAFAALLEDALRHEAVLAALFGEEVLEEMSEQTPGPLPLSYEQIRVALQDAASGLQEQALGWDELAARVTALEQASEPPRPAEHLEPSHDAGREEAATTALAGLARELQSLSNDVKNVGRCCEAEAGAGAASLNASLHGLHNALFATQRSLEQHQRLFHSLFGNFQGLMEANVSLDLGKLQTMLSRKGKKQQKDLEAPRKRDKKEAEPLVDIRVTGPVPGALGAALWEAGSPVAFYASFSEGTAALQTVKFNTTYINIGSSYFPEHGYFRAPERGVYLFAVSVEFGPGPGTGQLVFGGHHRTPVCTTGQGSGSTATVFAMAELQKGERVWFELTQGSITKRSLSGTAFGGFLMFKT
Description: We previously identified MMRN2 as a binding partner of CLEC14A, one of the members of the C-type lectin domain (CTLD) group 14 family (4). To test whether any of the other CTLD group 14 family members also bind to MMRN2, we employed far western blotting using MMRN2 protein probe as a surrogate for a primary antibody in a standard western blot set up. The CTLD group 14 family members CLEC14A, CD93 and thrombomodulin were all constructed with a C-terminal green fluorescent protein (GFP) tag (FIG. 1A). Constructs were transfected into HEK293T cells and lysates were separated by SDS-PAGE under non-reducing conditions to keep disulphide bonds intact, then transferred to PVDF membranes and blotted using HEK293T lysates overexpressing full-length human MMRN2 with a polyhistidine (His) tag. MMRN2 protein binding was detected by staining with an anti-His tag antibody.
(§1) Whole cell protein lysates were made by incubating with lysis buffer (1% (v/v) NP40, 10 mM Tris pH7.5, 150 mM NaCl and 1 mM EDTA) and pelleting insoluble material. Standard protocols for western blotting were used. […] The epitope tag of each probed protein was detected with secondary antibody incubation (anti-His or anti-Fc HRP conjugate) and then tertiary anti-mouse HRP for the case of anti-His.

[2] = target: T2, CLEC14A-ECD-Fc (human CLEC14A extracellular domain fused to an Fc tag) (human, UniProt Q86T13 22-396); assay: far western blot; HEK293T lysates probed with CLEC14A-ECD-Fc
T2 construct: Expressed in HEK293T cells; also called hCLEC14A-ECD-Fc; C14A-Fc; not shown: human IgG Fc tag
T2 sequence: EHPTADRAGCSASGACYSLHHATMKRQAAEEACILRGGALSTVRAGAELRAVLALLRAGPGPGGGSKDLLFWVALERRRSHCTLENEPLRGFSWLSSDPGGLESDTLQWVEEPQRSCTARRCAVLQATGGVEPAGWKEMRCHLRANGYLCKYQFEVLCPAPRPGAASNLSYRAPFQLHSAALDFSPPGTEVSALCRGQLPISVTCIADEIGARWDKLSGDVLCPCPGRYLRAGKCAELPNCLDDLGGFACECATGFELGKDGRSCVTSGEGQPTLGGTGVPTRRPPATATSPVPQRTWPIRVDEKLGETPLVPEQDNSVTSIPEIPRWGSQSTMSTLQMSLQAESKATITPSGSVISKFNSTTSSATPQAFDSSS
Description: FIG. 2. […] (A) Diagrams of MMRN2 truncation mutants, showing the elastin microfibril interface (EMI) domain, coiled-coil (CC) domain and complement related C1q domain. The minimal CLEC14A binding fragment is highlighted in black. (B,C) HEK293T were transfected with truncation mutants. Lysates were far western blotted under reduced conditions with CLEC14A extracellular domain fused to an Fc tag (CLEC14A-ECD-Fc) and western blotted by use of His tag antibodies. (B) The smallest binding fragment was identified as MMRN2⁴⁸⁷⁻⁸²⁰, MMRN2^FL fails to bind CLEC14A-ECD-Fc. (C) The smallest MMRN2 fragment binding CLEC14A is MMRN2⁵³⁰⁻⁶²⁴. (D) MMRN2⁴⁹⁵⁻⁶⁷⁴ and MMRN2⁴⁹⁵⁻⁶⁰³ bind to streptavidin under reducing conditions after biotinylation. (E) Flow cytometry histograms of HEK293T transfected with GFP tagged CTLD group 14 family members and stained with biotinylated MMRN2⁴⁹⁵⁻⁶⁷⁴ (grey line), confirming binding to CLEC14A and CD93 but not thrombomodulin. Streptavidin-PE was used as a control for background binding (grey shaded).
as §1, with “material.” for “material. Standard protocols for western blotting were used.”

[3] = target: T3, mouse CLEC14A-ECD-Fc (murine CLEC14A-ECD fused to a human Fc tag) (mouse; human, UniProt Q8VCP9 22-386); assay: far western blot, reduced and non-reduced
T3 construct: extracellular domain; not shown: human Fc tag
T3 sequence (looked up): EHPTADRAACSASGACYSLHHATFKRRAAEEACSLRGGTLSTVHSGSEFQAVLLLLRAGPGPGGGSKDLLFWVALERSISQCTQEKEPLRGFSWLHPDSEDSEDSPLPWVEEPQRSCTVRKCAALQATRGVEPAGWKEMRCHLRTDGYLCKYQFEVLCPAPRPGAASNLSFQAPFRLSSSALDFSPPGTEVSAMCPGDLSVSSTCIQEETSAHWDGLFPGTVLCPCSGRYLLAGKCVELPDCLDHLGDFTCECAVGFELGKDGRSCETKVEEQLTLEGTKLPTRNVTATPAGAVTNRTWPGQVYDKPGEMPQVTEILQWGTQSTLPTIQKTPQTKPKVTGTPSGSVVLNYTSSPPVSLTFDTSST

[4] = target: T3, mouse CLEC14A-ECD-Fc (murine …); assay: far western blot; HEK293T lysate probed with mouse CLEC14A-ECD-Fc

B1: CLEC14A (human, wild type, C-terminal GFP tag, expressed in HEK293T) (receptor)
chain: EHPTADRAGCSASGACYSLHHATMKRQAAEEACILRGGALSTVRAGAELRAVLALLRAGPGPGGGSKDLLFWVALERRRSHCTLENEPLRGFSWLSSDPGGLESDTLQWVEEPQRSCTARRCAVLQATGGVEPAGWKEMRCHLRANGYLCKYQFEVLCPAPRPGAASNLSYRAPFQLHSAALDFSPPGTEVSALCRGQLPISVTCIADEIGARWDKLSGDVLCPCPGRYLRAGKCAELPNCLDDLGGFACECATGFELGKDGRSCVTSGEGQPTLGGTGVPTRRPPATATSPVPQRTWPIRVDEKLGETPLVPEQDNSVTSIPEIPRWGSQSTMSTLQMSLQAESKATITPSGSVISKFNSTTSSATPQAFDSSSAVVFIFVSTAVVVLVILTMTVLGLVKLCFHESPSSQPRKESMGPPGLESDPEPAALGSSSAHCTNNGVKVGDCDLRDRAEGALLAESPLGSSDA
notes: On cells in flow cytometry; as non-reduced HEK293T lysate in far western blots; also called CLEC14A wt; cell surface expressed CLEC14A; not shown: C-terminal green fluorescent protein (GFP) tag from vector pEGFP-N1
Q: Does B1 bind [1]?
A: binds

B2: CD93 (human, wild type, C-terminal GFP tag, expressed in HEK293T) (receptor)
chain: TGADTEAVVCVGTACYTAHSGKLSAAEAQNHCNQNGGNLATVKSKEEAQHVQRVLAQLLRREAALTARMSKFWIGLQREKGKCLDPSLPLKGFSWVGGGEDTPYSNWHKELRNSCISKRCVSLLLDLSQPLLPSRLPKWSEGPCGSPGSPGSNIEGFVCKFSFKGMCRPLALGGPGQVTYTTPFQTTSSSLEAVPFASAANVACGEGDKDETQSHYFLCKEKAPDVFDWGSSGPLCVSPKYGCNFNNGGCHQDCFEGGDGSFLCGCRPGFRLLDDLVTCASRNPCSSSPCRGGATCVLGPHGKNYTCRCPQGYQLDSSQLDCVDVDECQDSPCAQECVNTPGGFRCECWVGYEPGGPGEGACQDVDECALGRSPCAQGCTNTDGSFHCSCEEGYVLAGEDGTQCQDVDECVGPGGPLCDSLCFNTQGSFHCGCLPGWVLAPNGVSCTMGPVSLGPPSGPPDEEDKGEKEGSTVPRAATASPTRGPEGTPKATPTTSRPSLSSDAPITSAPLKMLAPSGSPGVWREPSIHHATAASGPQEPAGGDSSVATQNNDGTDGQKLLLFYILGTVVAILLLLALALGLLVYRKRRAKREEKKEKKPQNAADSYSWVPERAESRAMENQYSPTPGTDC
notes: On cells in flow cytometry; as non-reduced HEK293T lysate in far western blots; also called CD93 wild type (wt); cell surface expressed CD93; not shown: C-terminal green fluorescent protein (GFP) tag from vector pEGFP-N1
Q: Does B2 bind [1]?
A: binds

B3: MMRN2^495-674 (human, expressed in HEK293T, His tag) (ligand)
chain: QKLYLDLDVIREGQRDATRALEETQVSLDERRQLDGSSLQALQNAVDAVSLAVDAHKAEGERARAATSRLRSQVQALDDEVGALKAAAAEARHEVRQLHSAFAALLEDALRHEAVLAALFGEEVLEEMSEQTPGPLPLSYEQIRVALQDAASGLQEQALGWDELAARVTALEQASEPPRP
notes: not shown: C-terminal BirA and His tags of vector pHL-Avitag3
Q: Does B3 bind [2]?
A: binds

Q: Does B3 bind [3]?
A: binds

B4: mouse MMRN2^495-678 (expressed in HEK293T, His tag) (ligand)
chain: QRVNSDVDVAPEGHRDVMHTLEETQVSLDEQHQLDGSSLQALQSTVDAMSSAMDAYRGEGERARAERARIRSQLRALDHAVEALKTAANGTRKEIRLLHGSFTALLEDALRHQAVLAALFGEEMIDEMSEEAPRPLPLDYEQIRLALQDAASGLQEQAIGWEDLATRVEALEKAAGGFVEQHPQ
notes: as for B3
Q: Does B4 bind [4]?
A: binds
